Assay results: IntAct's records for PubMed 25960410

B1: Mortality factor 4-like protein 1 (Homo sapiens), Q9UBU8-2 (parent)
chain: MAPKQDPKPKFQEGERVLCFHGPLLYEAKCVKVAIKDKQVKYFIHYSGWNKNWDEWVPESRVLKYVDTNLQKQRELQKANQEQYAEGKMRGAAPGKKTSGLQQKNVEVKTKKNKQKTPGNGDGGSTSETPQPPRKKRARVDPTVENEETFMNRVEVKVKIPEELKPWLVDDWDLITRQKQLFYLPAKKNVDSILEDYANYKKSRGNTDNKEYAVNEVVAGIKEYFNVMLGTQLLYKFERPQYAEILADHPDAPMSQVYGAPHLLRLFVRIGAMLAYTPLDEKSLALLLNYLHDFLKYLAKNSATLFSASDYEVAPPEYHRKAV

Variants of: B1
Conditions: with mrgbp_human MRGBP

Row | Variant | effect of a mutation on the interaction
1 | W172A | decreasing interaction strength
2 | L168A | decreasing interaction strength
3 | L287A | decreasing interaction strength
